Experimental findings from the supplement of paper PMC12042874 are described below.

± gives the uncertainty stated by the source.

This data set in a line: amyloid nucleation score (Sup35N fusion, yeast selection) (log enrichment); library NNK2; higher = more nucleation; inactive = no reads after selection. The gist of the method: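 Using DiMSum, nucleation scores were taken as the log enrichment of output over input reads, centred on the mode score of non-aggregating sequences. The input and output reads came from Illumina sequencing of plasmid inserts, with sequences under 100 input reads excluded. The yeast were psi-negative, expressed Sup35N fused to peptides of 20 random codons, were induced with 100 μM copper sulfate for 24 hours, and were grown 7 days at 30°C on medium lacking adenine and uracil.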

TECYLDVHLLHCRCALRSTP yielded an amyloid nucleation score of 6.83 ± 0.069.
For GSRGMVFQMFT the value was 0.94 ± 0.48; for YEMFHAILCY, -0.101 ± 0.8.
To MGARSIRDRSSVGK belongs -0.464 ± 1.1.
As for SSLDRKAVLAILSSTYLLRL, the amyloid nucleation score was 2.33 ± 0.23.
For CWFHGLWIRGVDNSSVYWMD the value was -0.466 ± 0.65.
To KLWAPWYNLWLFALTIVCDI belongs 0.343 ± 0.64; to ACQYLGLETPKWCGINRWGL, 0.324 ± 0.26.
For SGPVVQDKVYHRVNYF the value was -0.369 ± 1.1; for YVQTSKCGS, 7.1 ± 0.055; for SSNFRLSLWYSKMM, -0.246 ± 0.36.
In turn, SFNEWLSR came in with an amyloid nucleation score of -0.391 ± 0.55.
For FYIYGNSCSPYIML the value was -0.681 ± 1; for FMWVNS, “inactive”.
For IYRCIYRTPMLLGLYFNGPV the value was -0.791 ± 0.55; for VRPRAPSSADNPLQ, 0.121 ± 0.49.
Turning to VQRYRVFVAICFCGEMQRGF, the amyloid nucleation score result was “inactive”.
Substance ILSLEDLSLVRYGAIDS registered an amyloid nucleation score of -0.483 ± 1.1.
To HEGNKRARYLALLSEIYFQW belongs 4.65 ± 0.084; to RCNMLDRYPSVGRNPVLMVV, 0.063 ± 1.1; to VKFCVWCGD, 7.039 ± 0.06.
For TCLVCVTEVAHDSHLNRVSH the value was 7.08 ± 0.082.
For SFIRMWKDRLYHRLVALNRV the value was 1 ± 0.48; for MVCVELFWFARLSLPGA, 0.246 ± 1.1; for SSMLPYSRHTIRVTKVRPPF, 0.561 ± 0.62.
For the substance LDSGHNGDVNGG, the amyloid nucleation score is -0.45 ± 0.64.
To VEFTRVGVRLSHDVPVHDRW belongs 3.95 ± 0.066; to CIVMLRTIIQRSFNMSMTHY, 3.2 ± 0.058; to SFHIVKDYNSDMYYFFNELV, “inactive”.
To FFIWKVLDWHLNSRSYRWFG belongs -0.325 ± 0.76.
With MCHVKFIT, the amyloid nucleation score was 3.18 ± 0.067.
For FAEFKVQIYLSWLYPEIPVN the value was -0.455 ± 1.1; for GMNRL, -0.869 ± 0.55; for SLFARRMWGGTVKWYNDRTY, -0.632 ± 0.76.
To VNDKFHFILF belongs 0.019 ± 0.8.
To TTENNCLVREKVVYGWMWSS belongs 0.149 ± 0.25.
Turning to VFFNYSNCLGLA, the amyloid nucleation score entry is “inactive”.
For CHPLEMWFFFSLGGFGVSMT the value was -1.54 ± 1.1; for KINIKGFSSYAGRYHTRKIW, “inactive”.
To VCRLFLYGQWLVGRRANSYS belongs -0.731 ± 0.39; to SSTPMCVPMYCS, “inactive”.
To VYLRMSFYYGKRP belongs 4.12 ± 0.044; to FHCNPIS, -0.277 ± 1.1; to WSWRGS, 0.629 ± 0.52.
Turning to TSNRTTNSLLMCDKLRNTSV, the amyloid nucleation score is -0.345 ± 0.25.
To PNTSKGGDGYSTWGTSQASS belongs 0.03 ± 0.46; to GNNFIF, “inactive”.
For VGPFSDH the value was -0.472 ± 0.79.
On to WVTGPSRPD, for which the amyloid nucleation score was found to be 0.387 ± 0.8.
For the substance DNFYCHHVDLFSWMIRADLA, the amyloid nucleation score was -0.847 ± 0.64.
In the case of ARSDLNMRTFFVWASLFVLS, the amyloid nucleation score was determined as 4.43 ± 0.056.
EPDELPYLLKASLMSLGHGP displayed an amyloid nucleation score of 4.64 ± 0.073.
To TSNCS belongs 0.579 ± 0.3; to SFPLSADEFNCSI, -0.314 ± 0.55.
To YVFYLVR belongs 1.03 ± 0.24; to VGGRSGE, -0.159 ± 0.26.
To CRARNCVRLW belongs 0.165 ± 0.65; to TCELYESHVGTFLHVSSNGT, 1.23 ± 0.12; to TWFAHQMWCFSILQFITLKS, 0.867 ± 0.32.
With VRNKMSGPLMFIIGLDLSCN, the amyloid nucleation score entry was “inactive”.
With SVLER, the amyloid nucleation score was -0.147 ± 1.1.
To LIAFMRF belongs 5.688 ± 0.042.
For CRVALSVVYHTINEKQWYRV the value was -0.988 ± 0.28.
IYCCISEWSNHTWV gave an amyloid nucleation score of 6.175 ± 0.036.
Consider EEWTVNCC, for which the amyloid nucleation score was 5.766 ± 0.046.
To FFLSRFLV belongs -0.27 ± 0.79; to FYWVLMNYGQLCCWFW, 1.79 ± 0.2; to DSPQHHECIMVWL, 4.38 ± 0.064.
In turn, VFGPPWCLGHSHWILFYVGC returned an amyloid nucleation score of -0.519 ± 1.
For YLLYCVS the value was “inactive”; for LELHGT, -1.22 ± 0.45.
To VTIFILFSLNSGGHGSDRVW belongs 4.849 ± 0.031; to TWQTLYASSVFFANPVEHPL, 0.068 ± 0.29.
To TPGLCSNL belongs -1.44 ± 1; to KNLVDWVYYPPMH, -1.23 ± 0.62.
For TISLRGDMDSSCKGIEGSSL, the amyloid nucleation score is -0.316 ± 1.1.
For ANTWVKHTLCVGRLQGDWGI, the amyloid nucleation score was -0.029 ± 0.42.
To RLLFCGWLTN belongs -1 ± 1; to RVFKDTRRIG, -0.545 ± 1; to FGFLPSVIWEASDIGSDCLE, 0.072 ± 1.1.
For VSRFDA the value was 0.306 ± 0.31; for GHVDCWYGRVTALGQAKYE, 0.344 ± 0.26.
For GLLGKTASTYAVRVWGIGVG the value was 1.03 ± 0.2; for MNIYEVSKYENGY, 3 ± 0.071.
GYRLGHRRGGFGVLNGFYGD came in with an amyloid nucleation score of -0.157 ± 0.79.
To QNKSIDSHAVGGIRVDDYRR belongs -0.088 ± 0.31.
FLTLATSTCGPACVW: the amyloid nucleation score came out at 6.99 ± 0.07.
To MVIGNLGLLLEGLRVEYLNH belongs “inactive”.
For ASAEQRNLCIEFASDQLYVI the value was -0.478 ± 0.38; for DFWFSGDFK, -0.778 ± 0.44.
Regarding SFEPFETLEREVPPPLTWPT, the amyloid nucleation score was 1.99 ± 0.2.
For VARRGALNVRHFFPGKREV the value was 0.608 ± 0.47.
On to HWKAFYL, for which the amyloid nucleation score was found to be 1.13 ± 0.59.
To YMHCNNCSNVHVWAKKKCRE belongs 8.432 ± 0.043; to AWSLDVTTM, 0.051 ± 0.27.
The substance SRHKFRSITFIEIHPMI had an amyloid nucleation score of 0.012 ± 0.43.
For NMGSYD the value was “inactive”; for RESARRKAYLLSKNGSNWLH, -0.249 ± 0.5; for ICSCTGTYVVRNRMTGTL, -0.786 ± 0.49.
For RCKCNAIEVT the value was 0.565 ± 0.2; for EVMEFSNDFSRIFFAFKGFV, -0.665 ± 0.78.
To RQVGNHSTYGLFNVQTRLRL belongs 2.52 ± 0.079; to VWWFPRLPIPKESVIINGLS, “inactive”.
Take IPILSFMRGLALSRSATYMS: the amyloid nucleation score entry was “inactive”.
To YPPWVSGVMIVMGHLRRCSA belongs 1.93 ± 0.43.
To SSNHTPTVVMHDHIPVLNFR belongs -0.628 ± 0.63; to RECDKEFRQSSSCIDRRLGM, -0.156 ± 0.8; to FDALRIFVPVPYRRWSSR, 1.52 ± 0.28.
For VDAFLWHVDVHMFIEVGVRW the value was -0.024 ± 0.65.
Turning to TTLYMACYSSCDEGN, the amyloid nucleation score is -0.193 ± 0.27.
For SCTHLDW the value was “inactive”; for HDYYMSVSLMGWY, -1.02 ± 0.34.
To NDPGYLTTYI belongs -0.418 ± 0.27.
For FMEGTRHCGKYFSC the value was 0.938 ± 0.26; for YRATYVLRVAFSWVVSCPGD, -0.377 ± 0.41.
In the case of RYLETYHSHACVSFTERN, the amyloid nucleation score was 0.606 ± 0.45.
To ERVQMFQIRVQSAYVVFGVS belongs 4.75 ± 0.077; to FWGGDLRACSCGQGIEFAGR, 3.7 ± 0.14.
SVTCSSRCVSQRRFLVGPWN had an amyloid nucleation score of -1.35 ± 0.41.
With DLSCGGRLKMNHYKA, the amyloid nucleation score was -0.686 ± 0.76.
For NMWLCNGSGRHRFWLR, the amyloid nucleation score amounted to 0.269 ± 0.51.
For LFSMSL the value was -1.27 ± 1.
For IENRLWIWSLH the value was 0.673 ± 0.32; for SDFIMTLSERVVGASLNSCD, “inactive”; for SYVSIWLACWLISFNWSGNG, 0.713 ± 0.58.
To VWLGVTSSPIIMSKNMSNVV belongs 0.404 ± 0.36; to AWHSRTFVSLSLGRTSVEVL, -0.242 ± 0.45.
With VWLDIYSQLEDENVYSSYLD, the amyloid nucleation score is 2.44 ± 0.086.
In turn, QMCIVDTNGRN returned an amyloid nucleation score of 0.861 ± 0.6.
To WFMSKAYVTSCALFSRVIHT belongs 0.914 ± 0.43; to LRDCFVEYEGSSSMYYLRQW, -0.105 ± 0.4; to YFNMSLTIPNI, 0.566 ± 0.47.
To FRHCTFRLFHAHK belongs -0.378 ± 1; to SIRSS, “inactive”; to FTCFFLVLRVKSLLMVSAVG, 6.34 ± 0.079.
To RRTSYLCWFAGYFGLI belongs -0.295 ± 0.45; to LVSNSSLSYPLDSYGSSRSD, -0.113 ± 0.49; to STSGVKAVQISLSSVPWRWD, 2.34 ± 0.13.
Regarding DKTKE, the amyloid nucleation score entry was “inactive”.
To SIRLYHYKFALRERKV belongs 5.345 ± 0.053; to YSSAGGHRLMGMGRIRYKTG, 0.026 ± 0.56.
Turning to CDSWWYFSNKANSLWSKCSA, the amyloid nucleation score was -0.723 ± 0.35.
To TIWFFFL belongs 7.075 ± 0.043.
